To fix the notation:
T1: cynomolgus monkey IL-2Rα/CD25 subunit (cynomolgus monkey, UniProt H6WS54 22-213)
T1 construct: also called Cyno IL-2R subunit
T1 sequence: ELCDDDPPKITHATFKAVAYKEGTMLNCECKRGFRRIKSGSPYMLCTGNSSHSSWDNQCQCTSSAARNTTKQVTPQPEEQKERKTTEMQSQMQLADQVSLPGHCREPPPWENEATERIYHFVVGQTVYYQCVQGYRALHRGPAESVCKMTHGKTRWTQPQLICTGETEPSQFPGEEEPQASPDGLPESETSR

T2: human interleukin-2 receptor α-chain (IL-2Rα; CD25), recombinant protein (human, UniProt P01589 22-240, limits assumed)
T2 construct: also called huIL2R-a; hIL-2RA
T2 sequence: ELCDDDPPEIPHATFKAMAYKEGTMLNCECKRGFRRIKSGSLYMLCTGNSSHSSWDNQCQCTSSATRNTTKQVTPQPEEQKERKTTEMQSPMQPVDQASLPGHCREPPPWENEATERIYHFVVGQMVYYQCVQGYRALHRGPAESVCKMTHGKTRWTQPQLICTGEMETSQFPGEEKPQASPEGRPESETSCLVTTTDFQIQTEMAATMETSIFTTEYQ

B1: 9-MP05G01 VHH-hFc, monospecific bivalent (Fc fusion)
chain: EVQLVESGGGLVQAGGSLRLSCAASGGSIYTYNMGWFRQAPGKEREFVAGTLWSGGDSVYADFAKGRFTLSRENAKNTLYLQMNSLKPEDTATYYCAIDPLSLTSDWRVDELSSWGKGTLVTVSS
notes: IgG1 Fc LALA-PG; not shown: human IgG1 CH2 and CH3 domains (Fc)
B2: 13-MP05E12 VHH-hFc, monospecific bivalent (Fc fusion)
chain: QVQLQESGGGLVQAGDSLRLSCAASGFNFGWHAMGWFRQAPGKEREFVATITWTGRDTYYADSVRGRFTISKDNAKDTLFLQMNSLRPDDTGVYYCAKARERATWAYSEDDCDYWGQGTQVTVSS
notes: as for B1
B3: 7-MP01G08 VHH-hFc, monospecific bivalent (Fc fusion)
chain: EVQLVESGGGLVQAGGSLRLSCAASGRAFSMYNMGWFRQAPGKEREFVAATGWSGANTPYADSVKGRFTISRDNTQNTVYLQMNSLKPEDTATYYCAADSIRLRSDVTRIPLEYDYWGQGTQVTVSS
notes: IgG1 Fc LALA-PG; also called 07-MP01G08; not shown: human IgG1 CH2 and CH3 domains (Fc)
B4: 5-MP01F05 VHH-hFc, monospecific bivalent (Fc fusion)
chain: EVQLVESGGGLVQAGGSLRLSCAASIRAFTTWSMAWFRQAPGKEREYVARINVSGSVTYYADFVKGRFTISRDNAKKTMYLEMNNLKPEDTALYYCAADRTGVGTNDYNYWGQGTQVTVSS
notes: as for B1
B5: 6-MP01G05 VHH-hFc, monospecific bivalent (Fc fusion)
chain: QVQLQESGGGLVQAGGSLRLSCAASGRTFSSYAMGWFRQAPGKEREFVAVISWNVDNTEYTDSVKGRFTISRDNDKNMVYLQMNSLKPEDTAVYYCAADSIPLSSDMSPTATEYGYWGQGTQVTVSS
notes: as for B1
B6: 11-MP05H04 VHH-hFc, monospecific bivalent (Fc fusion)
chain: QLQLVESGGGLVQAGGSLRLSCAASGLTFEGYAIGWFRQAPGKEREGVSYITGSDGTTYYINSVKGRFTISSDNAKSTVYLQMNTLKPEDTAVYYCAVDRLGSQGRYASAWWRSGDMDLWGKGTQVTVSS
notes: as for B1
B7: 2-MP01A02 VHH-hFc, monospecific bivalent (Fc fusion)
chain: QVQLVESGGGLVQPGGSLRLSCATSGFTFRNNFMSWVRQAPGKGLEWVSTISYGGESTTYAESVKGRFTISRDNAKNTLYLQMNNLKPEDTAVYYCAKATSYDSIRSGSRGQGTQVTVSS
notes: IgG1 Fc LALA-PG; also called anti-IL-2Rα Ab 2; not shown: human IgG1 CH2 and CH3 domains (Fc)
B8: 8-MP01C12 VHH-hFc, monospecific bivalent (Fc fusion)
chain: B7 chain with R30S, W47F, S63A, V93I, D103T, S107G, G108A, S109P
notes: IgG1 Fc LALA-PG; also called anti-IL-2Rα Ab 8; anti-IL-2Rα VHH 8; not shown: human IgG1 CH2 and CH3 domains (Fc)
B9: 3-MP01E03 VHH-hFc, monospecific bivalent (Fc fusion)
chain: QVQLVESGGGLVQAGGSLRLSCTASGRTLSSYSMAWFRQAADKGREFVTAISSSGVVTHVLDSVKGRFTISRDNAKNTVYLQMNSLQPEDTALYFCAGTASSYSTYEANYNYWGQGTLVTVSS
notes: as for B1
B10: 10-MP05F03 VHH-hFc, monospecific bivalent (Fc fusion)
chain: QVQLVESGGGLVQAGGSLRLSCAASGIPFDNYAMGWFRQAPGKEREFVAARDLEGIITRYGDSVKGRFTISRGNAKNTVFLQMNSLKPEDTAVYYCAARDGGVVAGSRSSAQYNYWGQGTQVTVSS
notes: IgG1 Fc LALA-PG; also called anti-IL-2Rα Ab 10; anti-IL-2Rα VHH 10; not shown: human IgG1 CH2 and CH3 domains (Fc)
B11: 1-MP01H01 VHH-hFc, monospecific bivalent (Fc fusion)
chain: EVQLVESGGGLVQAGGSLRLSCAASGRTFRTHNMGWFRRAPGKEREFVAAISWNVDNTLYADSVKGRFTISRDNGRNMVYLQMNSLKPEDTAVYYCAADNIPLSSDVAATATEYDYWGQGTQVTVSS
notes: as for B1
B12: 4-MP01F04 VHH-hFc, monospecific bivalent (Fc fusion)
chain: B11 chain with E1Q, R27G, H32R, I51V, T58K, V107M, A108R, A109P
notes: as for B1
B13: 12-MP05B12 VHH-hFc, monospecific bivalent (Fc fusion)
chain: QVQLVESGGGLVQAGGSLRLSCAASGFTFDGYAIGWFRQAPGKEREGVSYITGSDGSTYYADSVKGRFTISSNNAKNTVYLHMNSLKPDDAAVYYCAIDRLGSRGAYVPIWWRSSDMDLWGKGTLVTVSS
notes: as for B1
B14: 5-MP01F05 VHH (periplasmic extract) (VHH)
VHH: B4 chain
notes: soluble VHH in periplasmic extract
B15: 6-MP01G05 VHH (periplasmic extract) (VHH)
VHH: B5 chain
notes: as for B14
B16: 2-MP01A02 VHH (periplasmic extract) (VHH)
VHH: B7 chain
notes: as for B14
B17: 8-MP01C12 VHH (periplasmic extract) (VHH)
VHH: B7 chain with R30S, W47F, S63A, V93I, D103T, S107G, G108A, S109P
notes: as for B14
B18: 3-MP01E03 VHH (periplasmic extract) (VHH)
VHH: B9 chain
notes: as for B14
B19: 10-MP05F03 VHH (periplasmic extract) (VHH)
VHH: B10 chain
notes: as for B14
B20: 1-MP01H01 VHH (periplasmic extract) (VHH)
VHH: B11 chain
notes: as for B14
B21: 92-MP05C07 VHH-hFc, monospecific bivalent (Fc fusion)
chain: QVQLVESGGGSVQAGGSLRLSCEASGRTLFSSYGMGWFRQAPGKEREFVGAISRFGTYTSYADPVKDRFTISRDNAKSTVYLQMNNTKPEDTAVYYCAAYTYSGSFYSTVKTHHDEYRYWGQGTQVTVSS
notes: as for B1

Changes are numbered by the printed parent chain.

Broadly, the koff is the first-order rate constant of dissociation. As usually defined, the EC50 is the concentration that produces a half-maximal response.

For one experiment, the target named is T1, cynomolgus monkey IL-2Rα/CD25 subunit. The experiment in a line: ELISA, bivalent; EC50 cyno vs human subunit. Here is the method:
(§1) Monospecific monovalent and bivalent IL-2Rα-, IL-2Rβ- and IL-2Rγ-specific antibodies that were selected on human IL-2R subunits, were evaluated for their cross-reactivity in an ELISA. Human and cynomolgus monkey receptor subunits (Acrobiosystems, KactusBiosystems) were coated at 1 μg/mL in PBS (pH 7.4) in a Maxisorp plate (Nunc) and incubated overnight at 4° C. The plates were further washed with PBS-Tween pH 7.4 and incubated with 1% cascin/PBS-Tween blocking solution for 1 hour shaking at 400 rpm. Subsequently, the plate was washed three times with PBS-Tween pH 7.4, after which the test antibodies diluted in 0.1% casein/PBS-Tween were added to the plate and incubated for 1 hour. The plate was again washed three times, after which goat anti-human IgG Fc (HRP) detection antibody (abcam) was added to the plate and incubated for 30 min. The colouring reaction was performed with TMB (Sigma-Aldrich) and stopped with 0.5N H₂SO₄.
(§2) Absorbance was measured at 450 nm with the reference wavelength of 620 nm using spectrophotometer. Final analysis and graphic output were performed with GraphPad Prism version 8 (GraphPad Software). The dose-response binding curves were fit to a nonlinear regression model (log (agonist) vs. response with a variable slope (four parameters)).
Background: In an ELISA, binding on a coated surface is turned into a signal by an enzyme label.
The molecule B1 displayed a Fold change of 1 fold.
The same measure, in the same setting: then B2, with 1 fold.
Take B3: the Fold change is 0.9 fold.
On the same count and under the same terms, for B4 the value was 1.6 fold; for B5, 0.9 fold.
Same read-out and setting: then B6, with 1.2 fold; and B7, with 1.1 fold; and B8, with 1.1 fold.
Still for that read-out and setting: then B9, with 1.9 fold.
For the molecule B10, the Fold change was found to be 1 fold.
The molecule B11 gave a Fold change of 1.2 fold.
On the same count and under the same terms, for B12 the value was 1.1 fold; for B13, 1.1 fold.

The target in another experiment is T2, human interleukin-2 receptor α-chain …. In words: P.E. binding ELISA. In outline:
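Human or mouse IL-2Rα, IL-2Rβ or IL-2Rγ protein coated directly overnight at 4° C, blocked with 4% Marvel/PBS for 1 hour.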
Regarding B14, the OD450 nm was 2.62 OD450 nm.
As for B15, the OD450 nm is 1.79 OD450 nm.
Still for that read-out and setting: then B16, with 2.62 OD450 nm; and B17, with 2.53 OD450 nm.
Same read-out and setting: for B18 the value was 2.54 OD450 nm; for B19, 2.46 OD450 nm; for B20, 1.71 OD450 nm.

The target is the same in a further experiment. In words: P.E. off-rate SPR. An outline of the steps: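 Immobilised receptor density: ~2500 RU (CM5, amine coupling). Analyte: VHH-containing P.E., 30 uL/min. Read-out: off-rate over 120s.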
Regarding B14, the koff is 0.00042 s⁻¹.
On the same count and under the same terms, then B15, with 0.0206 s⁻¹.
Still for that read-out and setting: for B16 the value was 0.00153 s⁻¹.
For the molecule B17, the koff turned out to be 0.000383 s⁻¹.
For B18, the koff amounted to 0.000799 s⁻¹.
Take B19: the koff was 0.000639 s⁻¹.
Same read-out and setting: then B20, with 0.0229 s⁻¹.

The next experiment concerns the target T1, cynomolgus monkey IL-2Rα/CD25 subunit. In words: ELISA, bivalent VHH-hFc. The method, then: as §1, §2
The molecule B1 returned an EC50 of 0.062 nM.
Same read-out and setting: for B2 the value was 0.051 nM.
Still for that read-out and setting: for B3 the value was 0.067 nM; for B4, 0.095 nM.
As for B21, the binding result was “no binding”.
For B5, the response was half-maximal at 0.05 nM (EC50).
On the same count and under the same terms, for B6 the value was 0.11 nM.
Still for that read-out and setting: for B7 the value was 0.043 nM; for B8, 0.054 nM; for B9, 0.106 nM.
As for B10, a half-maximal response (EC50) required 0.06 nM.
Still for that read-out and setting: then B11, with 0.061 nM; and B12, with 0.056 nM.
Molecule B13 had an EC50 of 0.084 nM.

The next experiment has as its target T2, human interleukin-2 receptor α-chain …. In words: ELISA, bivalent VHH-hFc. Here is the method:
as §1, §2
B1: the EC50 turned out to be 0.065 nM.
For B2, the EC50 stood at 0.049 nM.
Same read-out and setting: for B3 the value was 0.072 nM.
As to B4, the EC50 worked out at 0.06 nM.
The same measure, in the same setting: for B21 the value was 0.047 nM.
The same measure, in the same setting: then B5, with 0.056 nM; and B6, with 0.093 nM; and B7, with 0.038 nM.
Same read-out and setting: then B8, with 0.051 nM.
Turning to B9, the EC50 turned out to be 0.057 nM.
On the same count and under the same terms, then B10, with 0.061 nM.
The same measure, in the same setting: then B11, with 0.052 nM; and B12, with 0.053 nM.
The same measure, in the same setting: then B13, with 0.074 nM.

The values above are taken from patent US20240409645A1 (DUALYX, published 2024).
